Measured values as given in US20100184636.

Biological target: endogenous raptor (UniProt Q8N122)
Sequence (Q8N122 whole entry, looked up): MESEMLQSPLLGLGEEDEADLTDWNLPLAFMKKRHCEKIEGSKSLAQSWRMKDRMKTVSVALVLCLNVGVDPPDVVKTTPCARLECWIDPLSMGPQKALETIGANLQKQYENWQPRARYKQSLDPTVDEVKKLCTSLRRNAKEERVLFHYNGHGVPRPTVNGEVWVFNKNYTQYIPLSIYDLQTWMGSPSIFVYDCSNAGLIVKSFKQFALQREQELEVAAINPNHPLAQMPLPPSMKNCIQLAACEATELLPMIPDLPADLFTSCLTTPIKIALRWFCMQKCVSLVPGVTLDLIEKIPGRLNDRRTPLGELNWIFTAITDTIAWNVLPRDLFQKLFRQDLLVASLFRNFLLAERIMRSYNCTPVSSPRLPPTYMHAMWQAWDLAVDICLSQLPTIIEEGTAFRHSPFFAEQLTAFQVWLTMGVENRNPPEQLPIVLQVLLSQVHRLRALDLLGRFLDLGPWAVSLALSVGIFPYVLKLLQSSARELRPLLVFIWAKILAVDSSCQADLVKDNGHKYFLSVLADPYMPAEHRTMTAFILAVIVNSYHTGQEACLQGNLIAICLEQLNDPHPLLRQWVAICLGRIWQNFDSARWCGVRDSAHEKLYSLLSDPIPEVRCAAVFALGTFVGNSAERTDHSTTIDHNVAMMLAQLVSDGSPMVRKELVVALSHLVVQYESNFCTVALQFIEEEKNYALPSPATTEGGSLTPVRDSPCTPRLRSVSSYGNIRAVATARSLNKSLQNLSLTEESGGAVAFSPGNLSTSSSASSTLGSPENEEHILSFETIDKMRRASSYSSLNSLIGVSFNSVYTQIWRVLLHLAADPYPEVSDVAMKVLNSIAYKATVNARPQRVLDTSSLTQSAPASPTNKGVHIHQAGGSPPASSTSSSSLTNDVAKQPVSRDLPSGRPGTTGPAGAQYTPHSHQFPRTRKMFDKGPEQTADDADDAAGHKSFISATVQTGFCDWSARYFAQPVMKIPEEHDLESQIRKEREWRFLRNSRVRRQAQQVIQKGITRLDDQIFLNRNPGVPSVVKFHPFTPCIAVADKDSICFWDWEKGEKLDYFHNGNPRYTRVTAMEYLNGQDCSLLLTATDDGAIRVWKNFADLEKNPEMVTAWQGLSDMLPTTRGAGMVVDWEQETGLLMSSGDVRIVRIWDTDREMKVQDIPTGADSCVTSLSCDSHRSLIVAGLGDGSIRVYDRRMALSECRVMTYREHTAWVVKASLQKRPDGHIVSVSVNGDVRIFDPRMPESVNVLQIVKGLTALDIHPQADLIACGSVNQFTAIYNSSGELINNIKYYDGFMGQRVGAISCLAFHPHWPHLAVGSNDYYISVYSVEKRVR

phospholipase D2, wild type (PLD2^wt)
exogenous PA-dependent phosphorylation of S6K1 (add-back): the exogenous PA-dependent phosphorylation of S6K1 was rescued by PLD2^wt and PLD2^K758R, but not by PLD2^F265A and PLD2^E266R
